# B1: PDGF-BB: active platelet-derived growth factor BB dimer (from Preprotech Inc.) (protein, UniProt P01127 82-190, looked up)
# Platelet-derived growth …: SLGSLTIAEPAMIAECKTRTEVFEISRRLIDRTNANFLVWPPCVEVQRCSGCCNNRNVQCRPTQVQLRPVQVRKIEIVRKKPIFKKATVTLEDHLACKCETVAAARPVT
# B2: tPA: wild type murine tissue-type plasminogen activator, serine protease thrombolytic agent (protein, UniProt P11214 33-559, looked up)
# Tissue-type plasminogen …: SYRATCRDEPTQTTYQQHQSWLRPMLRSSRVEYCRCNSGLVQCHSVPVRSCSEPRCFNGGTCQQALYFSDFVCQCPDGFVGKRCDIDTRATCFEEQGITYRGTWSTAESGAECINWNSSVLSLKPYNARRPNAIKLGLGNHNYCRNPDRDLKPWCYVFKAGKYTTEFCSTPACPKGKSEDCYVGKGVTYRGTHSLTTSQASCLPWNSIVLMGKSYTAWRTNSQALGLGRHNYCRNPDGDARPWCHVMKDRKLTWEYCDMSPCSTCGLRQYKRPQFRIKGGLYTDITSHPWQAAIFVKNKRSPGERFLCGGVLISSCWVLSAAHCFLERFPPNHLKVVLGRTYRVVPGEEEQTFEIEKYIVHEEFDDDTYDNDIALLQLRSQSKQCAQESSSVGTACLPDPNLQLPDWTECELSGYGKHEASSPFFSDRLKEAHVRLYPSSRCTSQHLFNKTVTNNMLCAGDTRSGGNQDLHDACQGDSGGPLVCMINKQMTLTGIISWGLGCGQKDVPGVYTKVTNYLDWIHDNMKQ
# Key:
# [1] = test system: BBB; experiment: Evans Blue extravasation (BBB opening) after intraventricular injection; type: in vivo; settings: C57BL6 mice, 2 μl intraventricular, 3 μM, 1 hour after injection
# Procedure: Wild type C57BL6 mice (10 Week old) were injected intraventricularly into the dorsal third ventricle with 2 μl of PBS, active PDGF-AA, PDGF-BB (both from Preprotech Inc.) and PDGF-CC (see below) (3 μM). Evans Blue was given intravenously immediately after the injection. One hour after the injection, the animals were perfused with PBS and the brain tissue was removed and processed for Evans Blue extravasation.
# Wild type C57BL6 mice (10 Week old) were injected intraventricularly into the dorsal third ventricle with 2 μl of either PBS, wild type murine tPA (3 μM), active PDGF-CC (3 μM), or wild type murine tPA (3 μM) plus active PDGF-CC (3 μM). Evans Blue was given intravenously immediately after the injection. One hour after the injection, the animals were perfused with PBS and the brain tissue was removed and processed for Evans Blue extravasation.
# Wt C57BL6 mice (10 Week old) were injected intraventricularly with 3 μl of either PBS, wild type murine tPA (3 μM), wild type murine tPA (3 μM) with rabbit anti-PDGF-CC (150 μg/ml). Evans Blue was given intravenously immediately after the injection. One hour after the injection, the animals were perfused with PBS and the brain tissue was removed and processed for Evans Blue extravasation.
# [2] = test system: cerebral vessels; experiment: electron microscopy of cerebral vessels after intraventricular injection (edema); type: in vivo; settings: mice, 2 μL at 1 μM intraventricular, 1 hour after injection, cortex
# Procedure: Electron microscopy of vessels in the brain from mice treated by intraventricular injection 1 hour prior to analysis. Panel A, PBS; panel B, tPA (2 μL at a concentration of a 1 μM); panels C and D PDGF-CC (3 μL at a concentration of a 1 μM). Panels B-D show arterioles surrounded by fluid-filled spaces indicative of developing edema. The approximate magnification is indicated on each panel.
# Specifically, tPA or active PDGF-CC (2 μL each at a concentration a 1 μM) were injected intraventricularly into mice, and morphological analysis of the cerebrovascular structure was performed. PBS was used as control. […] FIGS. 5B-D show arterioles surrounded by fluid-filled spaces indicative of developing edema. The approximate magnification is indicated on each panel.
Molecule,"vascular permeability / opening of the BBB (Evans Blue extravasation) ([1]; Example 1, FIG. 1)","opening of the BBB (Evans Blue extravasation) ([1]; Example 3, FIG. 3)",edema formation around cerebral vessels (transmission electron micrographs) [2]
B1,induce increased vascular permeability,–,–
B2,–,potent inducers of opening of the BBB,induce areas of fluid accumulation surrounding the vessels

# From patent US10676527B2, “Methods and compositions for modulation of blood-neural barrier” (Ludwig Institute for Cancer Research Ltd, priority 2006, dated 2020)
